Results: US10357549B2, “Pigment epithelium-derived factor (PEDF) and peptide derivatives thereof for use in osteoblast differentiation and bone growth” (Yale University, priority 2014, dated 2019)
Values belong to the molecule of their own block, whether it stands above or below them.

Key:
[1] = system: Wnt cell surface receptor LRP6; assay: Canonical Wnt-β-catenin signaling in hMSCs (immunoblot of phospho-LRP6 and active β-catenin); type: cell-based, human; settings: for LRP6 phosphorylation: hMSCs, Wnt3a 50 ng/ml, PEDF 500 ng/ml
Procedure: The inhibitor of Wnt production (IWP-2; Tocris Bioscience, Minneapolis, Minn., USA; 2 μM×24-48 h) was used to block production of endogenous Wnt proteins (Chen et al., 2009, Nat Chem Biol, 5: 100-107; Clevers et al., 2012, Cell, 149: 1192-1205). All other chemicals, unless indicated, were purchased from Sigma (St. Louis, Mo., USA).
(§1) Adipose-derived hMSCs [American Type Culture Collection (ATCC), Manasses, Va., USA; PCS-500-011) were propagated in MSC basal medium supplemented with MSC growth kit (ATCC). Cells were CD29, CD44, CD105, and CD166 positive and negative for CD 31, CD34, and CD45. Interrogation of Wnt-β-catenin signaling was done in ATCC MSC basal medium with 2% FBS. PEDF (500 ng/ml) was added for 6 h. Passage 2 and 3 hMSCs were used for Wnt signaling experiments. For adipocyte conversion, cells (5000 cells/cm^2) were placed in adipocyte differentiation medium (ATCC; PCS-500-050) for 9-10 d. For osteoblast differentiation, cells (5000 cells/cm^2) were differentiated in osteoblast differentiation medium (ATCC; PCS-500-052) for 10-21 d. Alkaline phosphatase kit (Sigma) was used to stain osteoblasts.
(§2) Immunoblotting was performed as described previously (Schmitz et al., 2011, Am J Pathol, 179: 2990-2999). Proteins were separated by 10% SDS-PAGE on gradient gels (Bio-Rad, Hercules, Calif., USA). Antibodies against nonphosphorylated β-catenin, total β-catenin, phospho-LRP6 (serine 1490), total LRP6 (Cell Signaling Technologies, Danvers, Mass., USA), and alkaline phosphatase (Developmental Studies Hybridoma Bank, University of Iowa, Iowa City, Iowa, USA). To assess signaling through the Wnt coreceptor LRP6, 3T3 adipocyte precursors with vector and LRP6-KO shRNA were used (Liu et al., 2012, J Biol Chem, 287: 7213-7223). On confluence, cells were serum starved for 48 h, and then changed to DMEM with 10% FCS (d 0). PEDF (10 nM) was added on d 0, and cells were harvested after 48 h. Knockdown was confirmed by immunoblotting for total LRP6. β-actin (Sigma) was used as a loading control.

[2] = system: SVCs from PEDF KO mice; assay: Osteoblast differentiation and mineralization of PEDF KO SVCs (Alizarin Red, qRT-PCR); type: cell-based, mouse
Procedure: (§3) Subcutaneous fat pads were dissected from WT and PEDF-KO mice and digested in HBSS medium containing 3% BSA (American Bioanalytical, Natick, Mass., USA), 0.8 mg/ml of type 2 collagenase (Worthington Biochemical Corp., Lakewood, N.J., USA), 1.2 mM CaCl2, and 1.0 mM MgCl2 for 1 h and 15 min in a shaking 37° C. water bath. Stromovascular fractions (SVFs) were obtained after centrifugation at 300 g for 5 min. Cells were initially plated in proliferation medium (DMEM plus 10% FBS and bFGF; 1 ng/ml) until 70-80% confluence. Adipogenic differentiation was initiated with differentiation medium (5 μg/ml insulin, 10 nM dexamethasone, 0.5 mM IBMX, and 1 μM rosiglitazone) and added on d 0 for 72 h. Afterward, cells were maintained in DMEM with 10% FBS and 5 μg/ml insulin for an additional 5 d until full differentiation as confirmed by light microscopy and Oil Red O staining. Osteoblast differentiation cocktail (10 nM dexamethasone, 50 μg/ml ascorbic acid, and 10 mM β-glycerophosphate) was used for 21 d.
(§4) RNA was isolated and processed using the RNAEasy mini kit (Qiagen, Valencia, Calif., USA). Primer probe sets were obtained from a commercial source (Applied Biosystems, Foster City, Calif., USA), and qRT-PCR was performed on a TaqMan ABI 7500 system (Applied Biosystems) as described previously (Schmitz et al., 2011, Am J Pathol, 179: 2990-2999). Target gene expression was normalized against 18S ribosomal RNA using the ΔΔCt method. On sorted adipose populations, qRT-PCR was performed on a Roche Lightcycler 480 (Roche, Basel, Switzerland) using a SYBR FAST qPCR kit (Kapa Biosystems, Woburn, Mass., USA; KK4611), and target gene expression was normalized to TBK1.
(§5) For Oil Red O staining, cells were washed in PBS and fixed in 10% formalin for 20 min. Cells were then stained with 0.5% Oil Red O for 15 min. For Alizarin Red staining, cells were washed in PBS and fixed in 10% formalin for 20 min. After being washed twice in ddH2O, cells were stained in 2% Alizarin Red S (pH 4.1). Cells were washed ≥3 times in ddH2O, and images were acquired with a Zeiss Axiophot microscope (Carl Zeiss, Oberkochen, Germany). Representative images are shown at ×40 view.

[3] = system: MSCs derived from stromovascular cells (SVCs); assay: Adipogenic differentiation of murine MSCs derived from stromovascular cells (Oil Red O, qRT-PCR); type: cell-based, mouse
Procedure: as §3, §4, §5

[4] = system: PEDF knock-out mice; assay: PEDF i.p. treatment of young and old PEDF KO mice, trabecular bone; type: in vivo, mouse; settings: young (200 ng i.p. every third day, two weeks) and old (25 μg/kg i.p. every third day, 4 weeks) PEDF KO mice
Excerpt: A ScanCo μCT 35 scanner (ScanCo Medical AG, Brüttisellen, Switzerland; Yale Center Core for Musculoskeletal Disorders) was used to assess the distal femur for trabecular and cortical bone morphology from 21-d-old WT and PEDF-KO mice in a blinded manner. Axial, sagittal, and coronal images were obtained at standardized sites, and measures of trabecular and total bone volumes and other parameters of bone density were obtained (Bouxsein et al., 2010, J Bone Miner Res, 25: 1468-1486). For histology, femurs and tibiae of 14- and 26-d-old mice were dissected, cleaned, and fixed in 70% ethanol, then further dehydrated through graded ethanols, cleared in toluene, and embedded in methyl methacrylate (MMA). After polymerization, MMA blocks were removed from the mold, cut to size, sanded, and polished on a Buehler Metasery (Buehler, Lake Bluff, Ill., USA). Longitudinal sections of […] were cut using a Reichert-Jung RM 2165 microtome (Leica Microsystems, Jena, Germany) using a D-profile tungsten carbide knife, mounted on charged slides, and stained with either Goldner's trichrome or Toluidine Blue O (pH 3.7).
Experiments were conducted to examine the effects of PEDF treatment on bone in young (44 days) and old (6 month) PEDF knock-out mice. PEDF (200 ng) was delivered i.p. every third day for two weeks in young mice. […]

[5] = system: hMSCs; assay: Adipogenic differentiation of human MSCs; type: cell-based; settings: PEDF started on day 0, adipogenic medium 10 days
Procedure: as §1
RNA was isolated and processed using the RNAEasy mini kit (Qiagen, Valencia, Calif., USA). Primer probe sets were obtained from a commercial source (Applied Biosystems, Foster City, Calif., USA), and qRT-PCR was performed on a TaqMan ABI 7500 system (Applied Biosystems) as described previously (Schmitz et al., 2011, Am J Pathol, 179: 2990-2999). Target gene expression was normalized against 18S ribosomal RNA using the ΔΔCt method. […]

[6] = system: hMSCs; assay: Osteoblast differentiation of hMSCs (alkaline phosphatase); type: cell-based, human; settings: PEDF added to hMSCs
Procedure: as §1
Immunoblotting was performed as described previously (Schmitz et al., 2011, Am J Pathol, 179: 2990-2999). Proteins were separated by 10% SDS-PAGE on gradient gels (Bio-Rad, Hercules, Calif., USA). Antibodies against nonphosphorylated β-catenin, total β-catenin, phospho-LRP6 (serine 1490), total LRP6 (Cell Signaling Technologies, Danvers, Mass., USA), and alkaline phosphatase (Developmental Studies Hybridoma Bank, University of Iowa, Iowa City, Iowa, USA). […]

[7] = system: 3T3-L1 adipocyte precursors; assay: PPARγ expression in 3T3-L1 adipocyte precursors with vector or LRP6 shRNA; type: cell-based, mouse; settings: PEDF 10 nM, 48 h
Procedure: as §2

[8] = system: femurs in PEDF KO mice; assay: Biomechanical testing of femurs of vehicle and PEDF treated PEDF KO mice; type: in vivo, mouse; settings: versus vehicle
Excerpt: Further experiments were done to compare the biomechanical properties of PEDF-treated and vehicle-treated bones. […] Femur length was not different between vehicle or PEDF-treated groups. PEDF increased bone stiffness, the slope of the load applied to the bone vs displacement of bone. Maximum load was not different in PEDF-treated mice. The deformation of bone after the yield point, a measure of bone ductility increased after PEDF treatment. Displacement of femurs at maximum load and at fracture (Fx) point increased after PEDF treatment, indicating bones that are less brittle with force applied.

[9] = system: β-catenin; assay: Active β-catenin and mature osteoblast gene expression in hMSC cultures with Wnt3a and PEDF peptides; type: cell-based, human; settings: 50 ng/ml Wnt3a alone
Procedure: Experiments were conducted to evaluate the effect of Wnt3a and PEDF-derived peptides on β-catenin, a transcriptional regulator of osteoblast differentiation. Cultures incubated in 50 ng/ml Wnt3a alone or in combination with 100 nM PEDF-derived peptides.

[10] = system: hMSCs; assay: Mineralization of hMSCs under continuous Wnt3a (Alizarin red, 21 days); type: cell-based, human; settings: Wnt3a 50 ng/ml continuous, 21-day-old hMSC cultures
Procedure: Experiments were conducted to evaluate the effect of PEDF-derived peptides on the mineralization of hMSCs. […] For “late” groups, PEDF 34-mer was added only during the last 8 days of the differentiation protocol. Mineralization was assessed by Alizarin red staining (FIG. 14C).

[11] = osteoblast differentiation, KO SVCs, day 21
[12] = PEDF started on day 3, both WT and KO SVCs
[13] = PEDF 500 ng/ml added to IWP-2-treated hMSCs

Molecule: Cc1ccc2nc(NC(=O)CSc3nc4c(c(=O)n3-c3ccccc3)SCC4)sc2c1 [IWP-2, reference compound]
- LRP6 phosphorylation (endogenous Wnt production) ([1]; IWP-2 2 μM incubation 48 h alone): near absence of LRP6 phosphorylation

- alkaline phosphatase by staining and protein levels [6]: increased alkaline phosphatase
B1: Pigment epithelium-derived factor (protein)
chain: QNPASPPEEGSPDPDSTGALVEEEDPFFKVPVNKLAAAVSNFGYDLYRVRSSTSPTTNVLLSPLSVATALSALSLGAEQRTESIIHRALYYDLISSPDIHGTYKELLDTVTAPQKNLKSASRIVFEKKLRIKSSFVAPLEKSYGTRPRVLTGNPRLDLQEINNWVQAQMKGKLARSTKEIPDEISILLLGVAHFKGQWVTKFDSRKTSLEDFYLDEERTVRVPMMSDPKAVLRYGLDSDLSCKIAQLPLTGSMSIIFFLPLKVTQNLTLIEESLTSEFIHDIDRELKTVQAVLTVPKLKLSYEGEVTKSLQEMKLQSLFDSPDFSKITGKPIKLTQVEHRAGFEWNEDGAGTTPSPGLQPAHLTFPLDYHLNQPFIFVLRDTDTGALLFIGKILDPRGP
notes: Full-length recombinant human PEDF generated in HEK cells; 50-kDa secreted protein of the SERPIN superfamily
- Alizarin Red staining (mineralization) ([2]; PEDF treatment for 21 days, KO SVCs, versus vehicle-treated cells): increased Alizarin Red staining
- Collagen Ia expression ([2]; day 21 of differentiation): not different
- Runx2 expression ([2]; day 21 of differentiation): did not affect
- Sp7 expression ([2]; day 21 of differentiation): did not affect
- reduction of PPARγ expression [2, 11]: ~80%
- transforming growth factor β (TGF-β) expression [2, 11]: reduced the expression
- PPARγ suppression, day 1 versus day 3 start ([3]; PEDF 500 ng/ml): greater when PEDF was started on day 1 compared with day 3
- adipogenesis (Oil Red O staining) ([3]; PEDF 500 ng/ml added on day 1 or day 3, assessed day 8): significantly inhibited adipogenesis
- expression of PPARγ, PGC1α, CEBPα and adipocyte marker ADIPOQ ([3]; PEDF 500 ng/ml started on day 1 or day 3): suppression
- inhibition of PGC1α expression [3, 12]: ~50%
- inhibition of PPARγ expression [3, 12]: ~50%
- suppression of PPARγ, adiponectin, and other adipocyte markers ([3]; compared with control-treated cells, P<0.001): ~90%
- LRP6 phosphorylation in IWP-2-treated cells [1, 13]: led to LRP6 phosphorylation
- active β-catenin in IWP-2-treated cells [1, 13]: enhanced levels of active β-catenin
- LRP6 phosphorylation [1]: increased LRP6 phosphorylation
- active β-catenin levels ([1]; medium conditions where endogenous Wnt proteins would be present): only minimal effects
- trabecular bone volume (BV) [4]: increases
- trabecular thickness [4]: increases
- adipogenesis of hMSCs [5]: inhibits adipogenesis
- proadipogenic transcription factors in hMSCs [5]: inhibited proadipogenic transcription factors
- PPARγ expression in cells with LRP6 knockdown [7]: induced PPARγ expression
- PPARγ expression in control (vector) cells [7]: significantly inhibited PPARγ expression
- bone stiffness (slope of load vs displacement) [8]: increased
- deformation of bone after the yield point (bone ductility) [8]: increased
- displacement of femurs at fracture (Fx) point [8]: increased
- displacement of femurs at maximum load [8]: increased
- femur length [8]: not different
- flexibility of femurs [8]: enhances the flexibility
- maximum load [8]: not different

B2: Wnt3a (protein, UniProt P56704 19-352, looked up)
Protein Wnt-3a: SYPIWWSLAVGPQYSSLGSQPILCASIPGLVPKQLRFCRNYVEIMPSVAEGIKIGIQECQHQFRGRRWNCTTVHDSLAIFGPVLDKATRESAFVHAIASAGVAFAVTRSCAEGTAAICGCSSRHQGSPGKGWKWGGCSEDIEFGGMVSREFADARENRPDARSAMNRHNNEAGRQAIASHMHLKCKCHGLSGSCEVKTCWWSQPDFRAIGDFLKDKYDSASEMVVEKHRESRGWVETLRPRYTYFKVPTERDLVYYEASPNFCEPNPETGSFGTRDRTCNVSSHGIDGCDLLCCGRGHNARAERRREKCRCVFHWCCYVSCQECTRVYDVHTCK
notes: prototypical Wnt agonist ligand
- LRP6 phosphorylation [1]: increased LRP6 phosphorylation
- active β-catenin under unopposed and continuous Wnt3a [9]: suppresses active β-catenin
- mineralization (Alizarin red) with continuous Wnt3a versus controls [10]: diminished mineralization
